The target in assay [1] is T1, Human Ang-1/2 BsmI chimeric molecule (human).
T1 sequence: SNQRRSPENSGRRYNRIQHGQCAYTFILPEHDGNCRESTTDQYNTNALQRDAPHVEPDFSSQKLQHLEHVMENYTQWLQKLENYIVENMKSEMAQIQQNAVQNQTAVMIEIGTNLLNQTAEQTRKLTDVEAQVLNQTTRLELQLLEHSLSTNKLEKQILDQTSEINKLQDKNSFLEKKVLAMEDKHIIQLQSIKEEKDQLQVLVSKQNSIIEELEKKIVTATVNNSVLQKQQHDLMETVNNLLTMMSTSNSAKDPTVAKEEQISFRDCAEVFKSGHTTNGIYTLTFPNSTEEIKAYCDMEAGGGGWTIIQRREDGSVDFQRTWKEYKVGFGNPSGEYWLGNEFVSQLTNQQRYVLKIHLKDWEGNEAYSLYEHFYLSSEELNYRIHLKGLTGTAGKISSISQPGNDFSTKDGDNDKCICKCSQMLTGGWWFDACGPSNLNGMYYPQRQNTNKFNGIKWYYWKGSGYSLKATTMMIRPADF
Briefly: ELISA. (An ELISA detects its analyte on a solid surface through an enzyme-linked reagent.)

The target in assay [2] is Mouse/Human Ang-2 StuI chimeric molecule (mouse; human) (UniProt O35608). The experiment in a line: ELISA.
Assay [3] deals with Mouse/Human chimeric Ang-2 with the human StuI-TfiI fragment (mouse/human chimera) (UniProt O35608). Briefly: ELISA.
Assay [4] concerns the target human Ang-2 H375Q (human) (UniProt O15123). Briefly: ELISA.
The target in assay [5] is human Ang-2 V345M (human) (UniProt O15123). Briefly: ELISA.
The target in assay [6] is human Ang-2 changed at positions 365 and 367 (human) (UniProt O15123). Briefly: ELISA.
The target of the next assay is human Ang-2443 (human) (UniProt O15123). Briefly: ELISA.
The target in assay [7] is mouse Angiopoietin-2 (mouse) (UniProt O35608). Briefly: ELISA; member tied by Table 16.
Assay [8] addresses human Angiopoietin-2 (human) (UniProt O15123). The experiment in a line: inhibition of rhAng-2 binding to its receptor.

B1: mAb 5.2.1 (antibody, part only; not given: light chain, V domains shown, part only)
VH: QVQLVESGGGVVQPGRSLRLSCAASGFTFSSYGMHWVRQAPGKGLEWVAVIWFDGFNKYYADSVKGRFTISRDNSKNTLYLQMNSLRAEDTAVYHCARDRGYSGYDHYYGMDVWGQGTTVTVSSA
As for B1, the % of binding to human Ang-2 in [1], in assay [2], in assay [3], in [4], in assay [5] and in assay [6] was 100% throughout. The same molecule gave a % of binding to human Ang-2 with human Ang-2443 (human) of 100%. The same molecule showed a % of immunoreactivity on human Ang-2 in assay [7] of 100%. In assay [8], the OD650 in inhibition assay stood at 0.069 OD650.

B2: mAb 3.28.1 (antibody, part only; not given: light chain, V domains shown, part only)
VH: EVQLVESGGGLVQPGGSLRLSCAASGFTFSSSWMSWVRQAPGKGLEWVANIKQDGSDKYYVDSVKGRFTISRDNAKNSLYLQMNSLRAEDTAVYYCVRDKGSGWFDYWGQGTLVTVSSA
For B2, the % of binding to human Ang-2 in assay [1] came out at 100%; in assay [2], 100%; in assay [3] it was 31%; in assay [4], 100%; in [5], 100%; in assay [6], 100%. In the assay with human Ang-2443 (human), this molecule yielded a % of binding to human Ang-2 of 100%. The OD650 in inhibition assay in assay [8] stood at 0.0588 OD650.

B3: mAb 5.28.1 (antibody, V domains shown)
VH: EVQLVESGGIVVQPGGSLRLSCAASGFTFDDYTMHWVRQTPGKGLEWVSLISWDGGSTYYADSVKGRFTISRDNSKNSLYLQMNSLRTEDTALYYCAKDIDIAVAGTGFDHWGQGTLVTVSS
VL: EIVMTQSPATLSVSPGERATLSCRASQSVTSNLAWYQQKPGQAPRLLIYGALIRATGIPARFSGSGSGTEFTLTISSLQSEDFAVYYCQQYNNWPFTFGPGTKVDIKR
Regarding B3, the % of binding to human Ang-2 in assay [6] stood at 100%.

B4: mAb 5.39.1 (antibody, V domains shown)
VH: QVQLVQSGAEVTKPGASVKVSCKASGYTFTAYHMYWVRQAPGQGLEWMGWINPNSGGTNYAQKFQGRVTMTRDTSISTAYMELSRLRSDDSPVYYCARDQGIAAAGPFDYWGQGTLVTVSS
VL: EIVMTQSPATLSVSPGDRATLSCRASQSVSSNFAWYQQKPGQAPRLLIYGSSTRATGIPARFSGSGSGTEFTLTISSLQSEDFAVYYCQQYHYWWTFGQGTKVEFKR
Consider B4, for which the % of binding to human Ang-2 in assay [6] came to 100%.

B5: mAb 5.86.1 (antibody, V domains shown)
VH: QVQLVQSGAEVKKPGASVKVSCKASGYTFTGYHMYWVRQAPGQGLEWLGWINPNSGGTNYAQKFQGRVTMTRDTSISTAYMELSRLRSDDTAVYYCVRDQGIAAAGPFDYWCQGTLVTVSS
VL: DIRMTQSPSSLSASVGDRVTITCRASQRISTYLNWYQQKPGKAPKFLIYAASSLQSGVPSRFSGSGSGTDFTLTISSLQPEDFATYYCQQSYTTPFTFGPGTKVDIKR
For B5, the % of binding to human Ang-2 in assay [6] came out at 100%.

B6: mAb 3.3.2 (antibody, V domains shown)
VH: EVQLVESGGGLVQPGGSLRLSCAVSGFTFSSYWMSWVRQAPGKGLEWVANIKQDGSEKYYVDSVKGRFTISRDNAKNSLYLQMNSLRAEDTAVYYCARDQGIAVAGPFDYWGQGTLVTVSS
VL: EIVMTQSPATLSVSPGERATLSCRASQTVSSDLAWYQQKPGQAPRLLIYGASIRATGIPARFSGSGSGTEFTLTISSLQSEDFAVYSCQQYYNWWTFGQGTKVEIKR
Take B6: in assay [6], the % of binding to human Ang-2 turned out to be 100%.

B7: mAb 5.62.1 (antibody, V domains shown)
VH: EVQLVESGGGLVQPGGSLRLSCAASGFTFSSYWMSWVRQAPGKGLEWVANIKQDGSEKYYVDSVKGRFTISRDNAKNSLYLQMNSLRAEDTAVYYCARDPGIAVAGPFDYWGQGTLVTVSS
VL: EIVMTQSPATLSVSPGERATLSCRASQSVSSNLAWYQQKPGQAPRLLIYGAFTRATGIPARFSGSGSGTEFTLTISSLQSEDFAVYYCQQYNHWWTFGQGTKVGIKR
In the case of B7, in [6], the % of binding to human Ang-2 worked out at 100%.

B8: mAb 5.88.3 (antibody, V domains shown)
VH: EVQMVESGGGLVQPGGSLRLSCAASGFTLRSYWMSWVRQAPGKGLEWVANIKEDGSEKYHVDSVKGRFTISRDNAENSLFLQMSSLRAEDTAVYYCARDMEASAGLFDYWGQGTLVTVSS
VL: EIVMTQSPATLSVSPGERAILSCRASQSISSNLAWYQQKPGQAPRLLIYGASTRATGIPARFSGSGSGTEFTLTISSLQSEDFAVYYCQQYNYWWTFGQGTKVEIKR
In assay [6], B8 displayed a % of binding to human Ang-2 of 100%.

B9: mAb 6.3.1 (antibody, V domains shown)
VH: QVQLVQSGAEVKKPGASVKVSCKASGYTFTGYFMHWVPQAPGQGLEWMGWINPNSGGTNYAQNFQGRVTMTRDTSISTAYMELSRLRSDDTPVYYCARDPWQNWNSYFDYWGQGTLVTVSS
VL: DIQMTQSPSSLSASVGDRVTITCRASQSIRSYLNWYQQKPGKAPKVLIYAASSLQSGVPSRFSGSGSGTDFTLTISSLQPEDFATYYCQQSYSTLCSFGQGTKLEIKR
In turn, B9 came in with a % of binding to human Ang-2 in assay [6] of 100%.

The values above are taken from patent US20080267971A1.
